Reference: the supplement of paper PMC10567573

B1: MNAT1 (parent)
chain: LAPIHKLEEALYEYQPLQIETYGP
B2: ZNF24 (parent)
chain: THTKEQILELVVLEQFVAILPKEL

Variants of: B1
Assay: protein stability index of a GFP-peptide fusion (GPS, HEK-293T) (PSI 1-6); higher = more stable
Details: c terminus: a fixed tail appended
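Further: lentivirally expressed fusions sorted by FACS into six bins by GFP to DsRed ratio, PSI derived from sequencing read proportions per bin multiplied by bin number.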

Protein stability index of substitutions, site by site:
G23: Y 1.87 | W 1.14
P24: S 2.35 | I 2.04 | D 1.95 | Y 2.37 | K 2.29 | Q 1.75 | N 2.52 | L 3.08 | W 1.99 | M 1.25 | A 2.14 | C 2.67 | T 1.87 | H 1.58 | G 1.82

Variants of: B2
Assay: as above
Details: c terminus: a fixed tail appended

Protein stability index, by site and new letter:
E9: N 2.82 | C 1.64 | F 2.82 | Y 3.52 | K 2.77 | P 2.93 | S 3.48 | Q 2.69 | M 2.04 | G 2.85 | V 3.25 | W 2.87 | R 2.49 | T 2.29 | A 3.22 | L 2.62 | H 3.25 | D 2.28
E14: D 2.24 | M 2.67 | Y 3.47 | H 2.94 | K 2.61 | T 2.64 | R 2.95 | G 3.21 | F 2.48 | W 3.05 | C 2.45 | A 2.14 | P 2.12 | I 3.12 | L 2.05 | S 2.53 | Q 2.97 | V 1.16 | N 3.68
T3: R 2.26 | Q 2.81 | V 2 | I 2.65 | K 2.96 | H 2.23 | M 3.02 | P 2.96 | S 3.88 | E 3.23 | A 3.86 | G 4.09 | W 3.42 | D 2.43 | Y 3.59 | L 3.11 | F 2.76 | C 1.53 | N 3.1
H2: D 4.11 | K 3.34 | I 3.4 | G 2.96 | Q 3.14 | E 2.74 | V 2.41 | N 2.59 | T 2.23 | P 1.76 | A 3.12 | W 3.14 | F 2.4 | C 2.25 | Y 2.19 | L 4.38 | M 3.24
K4: F 4.57 | G 3.12 | W 2.88 | A 2.93 | T 1.83 | P 2.23 | N 2.23 | H 2 | S 2.19 | Y 2.51 | L 4.05 | I 3.38 | R 1.59 | Q 2.59 | E 1.58 | M 2.91 | C 3.41 | D 2.45
Q6: R 2.56 | T 3.03 | W 2.41 | E 2.46 | C 2.11 | L 3.47 | D 1.55 | M 3.56 | K 3.65 | F 3.53 | V 3.24 | A 2.33 | Y 4.9 | H 1.8 | P 4 | G 3.09 | S 2.96 | I 3.01 | N 2.52
V17: F 2.47 | T 1.97 | K 1.54 | S 2.95 | E 1.91 | H 2.25 | C 2.49 | G 1.52 | A 3.14 | P 1.94 | W 2.19 | R 1.66 | N 1.72 | Y 2.53 | L 2.47 | Q 2.02 | I 2.94 | D 1.71 | M 2.31
V11: M 2.6 | R 1.76 | C 2.51 | Y 1.91 | Q 2.05 | I 3.03 | L 2.43 | E 1.86 | P 2.67 | K 1.47 | D 2.36 | N 2.15 | H 2.18 | G 2.05 | A 2.1 | S 2.03 | F 3.28 | W 3.42 | T 2
E5: T 3.59 | M 3.25 | N 3.01 | A 2 | Y 2.01 | R 3.65 | W 2.85 | I 3.67 | C 2.31 | S 1.57 | L 2.78 | F 2.12 | H 2.42 | K 2.23 | G 2.7 | V 3.53 | Q 2.97
A18: D 2.32 | E 2.1 | C 3.45
Q15: N 2.81 | D 1.91 | A 2 | Y 2.18 | I 2.87 | P 2.4 | V 3.51 | S 2.93 | G 2.95 | M 2.63 | K 1.75 | R 2.81 | L 2.44 | C 1.66 | F 2.79 | H 2.53 | T 3.75 | W 2.82 | E 2.55
F16: D 2.33 | K 1.95 | H 2.13 | A 1.91 | N 2.21 | P 1.94 | Q 2.01 | R 1.99 | E 2.03 | V 2.02 | W 2.54 | I 1.43 | Y 1.76 | S 2.27 | L 3.14 | T 1.82 | C 1.77 | G 1.69 | M 2.5
T1: E 2.81 | V 3.19 | R 1.94 | Y 2.79 | N 2.86 | F 3.59 | L 1.56 | G 2.25 | C 3.51 | S 3.3 | P 3.09 | D 2.63 | A 3.53 | Q 1.32 | M 1.92 | I 2.73 | W 2.72 | K 2.39
V12: Q 2.05 | H 1.8 | W 2.42 | N 2.14 | S 2.03 | K 2.07 | C 2.23 | A 1.83 | G 1.98 | D 2.27 | E 2.22 | L 2.12 | I 3.17 | R 1.94 | T 1.99 | P 2.19 | F 2.93 | M 2.51 | Y 2.64
I7: Q 1.89 | F 2.54 | A 1.74 | K 1.56 | H 2.04 | S 2.04 | G 1.76 | M 3.04 | T 2.11 | C 1.59 | L 2.16 | N 1.65 | R 1.9 | D 2.35 | P 2.48 | V 1.29 | W 2.51 | E 2.55 | Y 3.29
L13: T 2.77 | W 2.67 | C 1.98 | D 2.29 | M 2.18 | F 2.47 | I 3.27 | K 1.69 | P 2.42 | G 1.84 | E 1.9 | H 1.76 | R 1.85 | Q 2.34 | S 1.55 | N 1.73 | A 1.51 | Y 2.88
L8: S 1.57 | Y 2.66 | R 1.85 | W 3.68 | E 2.32 | M 2.41 | A 2.28 | N 1.57 | I 2.79 | H 2.1 | Q 1.95 | F 3.62 | C 2.75 | P 2.16 | K 1.84 | T 1.75 | V 2.4 | D 2.52 | G 1.62
L10: K 2.04 | V 2.5 | A 2.28 | N 2.23 | Y 2.69 | H 1.65 | G 1.7 | M 2.69 | I 2.02 | D 2.69 | T 2.03 | Q 2.26 | F 2.35 | P 2.09 | C 2.42 | E 2.12 | S 1.72 | R 1.72
